Positions count from the first letter of the chain named.
T1: hemagglutinin (HA) of influenza B virus B/Lee/1940, on purified virus (influenza B virus (B/Lee/1940))
T1 chain: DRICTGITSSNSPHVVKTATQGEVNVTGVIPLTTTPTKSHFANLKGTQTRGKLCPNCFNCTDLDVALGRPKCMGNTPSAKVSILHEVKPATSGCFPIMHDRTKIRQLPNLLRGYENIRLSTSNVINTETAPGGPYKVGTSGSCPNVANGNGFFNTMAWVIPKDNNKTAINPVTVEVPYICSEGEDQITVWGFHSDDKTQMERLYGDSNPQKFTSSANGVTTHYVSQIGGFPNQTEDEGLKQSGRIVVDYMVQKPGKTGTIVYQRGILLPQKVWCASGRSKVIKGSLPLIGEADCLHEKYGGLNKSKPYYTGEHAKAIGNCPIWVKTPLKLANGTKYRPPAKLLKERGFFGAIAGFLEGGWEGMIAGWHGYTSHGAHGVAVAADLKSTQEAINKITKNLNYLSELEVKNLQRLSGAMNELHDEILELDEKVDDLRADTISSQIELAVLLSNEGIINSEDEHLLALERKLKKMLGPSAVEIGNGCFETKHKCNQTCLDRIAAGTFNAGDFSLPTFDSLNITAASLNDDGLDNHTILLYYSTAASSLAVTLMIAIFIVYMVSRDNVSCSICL

B1: C3G10-IgM (antibody, V domains shown)
VH: EVQLQESGAELVKPGASVKLSCTASGFDIKDTYIHWVKQKPEKGLEWIGRIDPADGDTQSDPRFQGKATITSDTSSNTTYLHLSSLTSEDTAVYYCAKGGWYFDVWGAGTTVTVSS
VL: HIVLTQSPASLAVSLGQRGTISCRASESVDSYGNSFMHWYQQRPGQPPKLLIYLASKLKCGVPARFSGSGSRTDFTLTNDPLEGGDGATYYCQQNNEVPRTFGGGTKLEIK
B2: C3G10-IgG (antibody, V domains shown)
VH: B1 VH
VL: B1 VL
B3: C10H10-IgM (antibody, V domains shown)
VH: EIQLQQSGPELVKPGASLKVSCKGFGYSFTDYKMYWVKQSHGKSLEWIGYIDPYNGGMRYNQKFKVKATLTVDMSSNTTFMHLNSLTFEDFAVYYCARGYGKNYAMEYWGQGTSVTVSS
VL: NIVLTQSPASLAVSLGQRATISCRASESVDTYGQSFMHWYQQKPGQPPKLLIHLASNLESGVPARFNGSGSRTDFTLTIDPVEADDAATYYCQQNNEDPYTFGGGTKLEIK
B4: C10H10-IgG (antibody, V domains shown)
VH: B3 VH
VL: B3 VL
B5: C7G6-IgM (antibody, V domains shown)
VH: EVQLQQSGPELVKPGASVKISCKASGYTFTDYNMHWVKQSLGKSLEWIGYIYPNNGGTGYNQKFESKATLTADNSSSTAYMELRTLTSEDSAVYYCVRSGAYYFNYLVPYFDYWGQGTTLTVSS
VL: NIVLTQSPASLAVSLGQRGTISCRASESVDIYGNSFMHWYQQKPGQPPKLLIYLASKLECGVCARFNGSGCRTDFTLAIDPVEGDDGATYYCQQNYEDPWTFGGGTKLEIK
B6: C11B10 (antibody, V domains shown)
VH: EVQLQQSGPELVKPGASVKISCKASGYTFTGYNMHWVKQSHGKSLEWIGKIYPNNGVTGYNQEFRSKATLTVDNSSSTAYMELRSLTSEDSAIYFCVRSGAYYVNYLVPYFDYWGQGTTLTVSS
VL: B5 VL with L15P, G19A, V29I, Q42K, L54R, K57N, C60S, C63P, C71S, A78T
B7: C7G6-IgG (antibody, V domains shown)
VH: B5 VH
VL: B5 VL

Assays:
[1] = biological target: T1, hemagglutinin (HA) of influenza B virus …; assay: ELISA
[2] = biological target: B/Florida/4/2006 HA (recombinant HA protein) (Influenza B virus (B/Florida/4/2006), UniProt E1TVD5, strain, biotin (EZ-Link Sulfo-NHS-LC-Biotin kit)); assay: BLI

Binder | binding result [1] | Kd [2] [nM]
B1 | binds | –
B2 | binds | –
B3 | no binding | –
B4 | no binding | –
B5 | binds | 0.58
B6 | no binding | –
B7 | binds | 24.7

— paper PMC6332795 (Theranostics, 2019)
